Laboratory results from patent US20170058005A1 (priority 2014, published 2017).
Where no end group is shown, it is not given here.

Tests used:
[1] = target: DRB1*1301 (DR13) (Homo sapiens, UniProt P01903+P01911, A100E/A169T/K41T/L162R/M171V/P40S/Q125H/Q178H/Q39Y/Q99D/R42S/S66N/T262R/W38E/Y61H); type: binding
[2] = target: DRB1*0101 (DR1) (Homo sapiens, UniProt P01903+P01911, A100R/D57E/F55L/F60I/F76Y/I96L/L162R/M171V/P40L/Q125E/R42F/V115G/Y59C); type: binding
[3] = target: DRB1*0301 (DR3) (Homo sapiens, UniProt P01903+P01911, A100K/A102G/A103R/A169T/F55Y/I96L/K41T/L162R/M171V/P40S/Q125H/Q178H/Q39Y/R42S/S66N/T106N/T262R/W38E/Y61H); type: binding
[4] = system: CD4^+ T cells of HLA class II transgenic mice; type: cell-based
[5] = target: DRB1*1501 (DR15) (Homo sapiens, UniProt P01903+P01911); type: binding
[6] = target: DRB1*0401 (DR4) (Homo sapiens, UniProt P01903+P01911, A100K/A169T/F76Y/I96L/K127E/L162R/M171V/N62H/P40V/Q125Y/R42H/S133A/S149N/S66Y/V115G/V209L/W38E); type: binding
[7] = target: DRB1*0701 (DR7) (Homo sapiens, UniProt P01903+P01911, A100R/A102G/A103Q/D57E/D86V/E43K/F76Y/K127E/L162R/M171V/P40G/Q125H/Q99D/R33Q/R42Y/R54Q/S133A/S66F/T210M/V115G/Y107V/Y59L/Y89S); type: binding
[8] = target: DRB1*1101 (DR11) (Homo sapiens, UniProt P01903+P01911, A100R/A169T/A87E/I96F/K41T/L162R/M171V/P40S/Q125H/Q178H/Q39Y/Q99D/R42S/S66Y/T262R/V115G/W38E); type: binding
[9] = system: HLA-DR molecules; type: binding, human

Row | Sequence | Relative binding affinity of peptide to HLA-DR molecules, DR13 [1] | Relative binding affinity of peptide to HLA-DR molecules, DR1 [2] | Relative binding affinity of peptide to HLA-DR molecules, DR3 [3] | HLA-restriction based on CD4 T cell response class II HLA transgenics after priming with LF [4] | Relative binding affinity of peptide to HLA-DR molecules, DR15 [5] | Relative binding affinity of peptide to HLA-DR molecules, DR4 [6] | Relative binding affinity of peptide to HLA-DR molecules, DR7 [7] | Relative binding affinity of peptide to HLA-DR molecules, DR11 [8] | CD4 T cell response in LF immunized HLA transgenics [4] | Binding across all HLA-DR alleles assayed [9] | IC50 ([1]; read-out: IC50 of reference peptide)
1 | IGLEIKDVQIIKQSEKEYIRIDAKVVP | 24 | 1 | 2 | DR1, DR15 | 1 | 919 | 7 | 73 | – | – | –
2 | SDVLEMYKAIGGKIYIVDGD | 123 | 5 | >76 | DQ8 | 2 | 305 | 1 | 4 | HLA-DQ8 specific response | strong to moderate binding across all seven HLA-DR alleles | –
3 | PEAFNYMDKFNEQEINLSLE | >172 | 2156 | >76 | DQ8 | 463 | 2 | 42 | 2 | – | – | –
4 | YVYAKEGYEPVLVIQSSEDY | 3 | 771 | >238 | DR1, DQ8 | >262 | 555 | 1182 | 14 | – | – | –
5 | DTGGLIDSPSINLDVRKQYK | 8 | 866 | 0.3 | DR15 | 130 | 935 | 15 | 179 | – | – | –
6 | VLVIQSSEDYVENTEKALNV | >172 | 1702 | 82 | DR1 | 958 | 29 | 66 | 168 | – | – | –
7 | KELLNRIQVDSSNPLSEKEK | 1,714 | 146 | 1 | DQ8 | 1 | 0 | 36 | 274 | – | – | –
8 | AVDDYAGYLLDKNQSDLVTN | >2 733 | 1,380 | 42 | DR4, DR15 | 0.1 | 10 | 1,789 | 55 | HLA-DR4 and HLA-DR15 restricted | – | –
9 | YGKDALLHEHYVYAKEGYEP | 6 | 199 | >76 | DQ8 | 4000 | 168 | 441 | 9 | – | – | –
10 | RNKTQEEHLKEIMKHIVKIE | 8 | 4810 | >76 | DQ8 | >2 184 | >1 539 | 77 | 2 | – | – | –
11 | SEGFIHEFGHAVDDYAGYLL | >2 733 | 5 | >1 000 | DR15 | 0.04 | 46 | 131 | 849 | immunodominant epitopes in HLA-DR15 transgenics | – | –
12 | EIMKHIVKIEVKGEEAVKKE | 19 | 243 | 50 | DQ8 | 329 | 567 | 249 | 4 | – | – | –
13 | KLITFNVHNRYASNIVESAY | 0.5 | 35 | 0.4 | DR1, DR4 | 5 | 3 | 72 | 7 | – | – | –
14 | LLFTNQLKEHPTDFSVEFLE | >172 | 909 | >76 | DQ8 | 193 | 6 | 51 | 148 | – | – | –
15 | TERVRLVTRHIYNREE [B1 21-36, reference compound] | – | – | – | – | – | – | – | – | – | – | 37 nM
16 | NEQEINLSLEELKDQRMLSR [LF 281-300] | – | – | – | – | – | – | – | – | did not induce a response in any of the HLA transgenics | – | –
17 | YLVDGNGRFVFTDITLPNIA | >2 733 | 123 | 0.3 | DR4 | 2 | 0.3 | 19 | 45 | elicited a T cell response in a single HLA transgenic strain | – | –
18 | SKKFIDIFKEEGSNLTSYGR | 1,225 | 4 | 474 | DR4 | 1 | 0.2 | 302 | 0.4 | HLA-DR4 and HLA-DR15 restricted | – | –
19 | PKSKIDTKIQEAQLNINQEW [LF584-603] | – | – | – | – | – | – | – | – | did not induce any response in any of the HLA transgenics | – | –
20 | YYEIGKILSRDILSKINQPY | 5 | 69 | 3 | DQ8 | 43 | 19 | 4 | 0.4 | – | – | –
